Laboratory results from publication PMC3118794.

How the values were obtained:
[1] = molecular target: actin of “ghost” muscle fibers (rabbit (endogenous in psoas muscle fibers)) (UniProt P68135); assay: reconstitution into ghost muscle fibers, washes, SDS-PAGE; 20 µM labeled Tm added to ghost fibers in RB buffer for 15 hours at 4°C, then 20 µM troponin complex and 20 µM S1; unbound proteins removed by repeated washes with rigor buffer; 12% SDS gel quantified; conditions: scale: actin per S1
[2] = molecular target: “ghost” fiber reconstituted with labeled Tm (rabbit (endogenous in psoas muscle fibers) | not stated) (UniProt P68135); assay: as above; conditions: scale: actin per TnI

skeletal troponin complex, sequence (P02586 whole entry): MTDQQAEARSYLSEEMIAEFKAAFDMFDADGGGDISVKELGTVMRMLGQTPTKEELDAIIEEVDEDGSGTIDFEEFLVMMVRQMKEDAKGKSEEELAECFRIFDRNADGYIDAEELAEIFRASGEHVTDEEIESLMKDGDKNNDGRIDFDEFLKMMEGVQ
skeletal troponin complex, sequence (P02643 whole entry): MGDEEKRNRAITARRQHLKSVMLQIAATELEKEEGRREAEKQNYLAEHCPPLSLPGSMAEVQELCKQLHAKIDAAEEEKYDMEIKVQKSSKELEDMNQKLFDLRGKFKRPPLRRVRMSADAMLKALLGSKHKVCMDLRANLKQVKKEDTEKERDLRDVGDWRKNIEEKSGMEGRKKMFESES
skeletal troponin complex, sequence (P02641 whole entry): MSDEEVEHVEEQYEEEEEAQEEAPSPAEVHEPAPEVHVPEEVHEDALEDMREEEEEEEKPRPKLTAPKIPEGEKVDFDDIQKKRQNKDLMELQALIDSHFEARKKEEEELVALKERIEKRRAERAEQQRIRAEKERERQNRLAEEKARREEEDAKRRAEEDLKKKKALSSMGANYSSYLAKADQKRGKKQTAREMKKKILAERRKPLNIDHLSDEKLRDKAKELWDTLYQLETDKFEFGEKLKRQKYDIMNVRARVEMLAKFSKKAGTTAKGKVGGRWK
myosin subfragment-1 (domain or fragment), sequence (Q28641 whole entry, the tested form may be a part): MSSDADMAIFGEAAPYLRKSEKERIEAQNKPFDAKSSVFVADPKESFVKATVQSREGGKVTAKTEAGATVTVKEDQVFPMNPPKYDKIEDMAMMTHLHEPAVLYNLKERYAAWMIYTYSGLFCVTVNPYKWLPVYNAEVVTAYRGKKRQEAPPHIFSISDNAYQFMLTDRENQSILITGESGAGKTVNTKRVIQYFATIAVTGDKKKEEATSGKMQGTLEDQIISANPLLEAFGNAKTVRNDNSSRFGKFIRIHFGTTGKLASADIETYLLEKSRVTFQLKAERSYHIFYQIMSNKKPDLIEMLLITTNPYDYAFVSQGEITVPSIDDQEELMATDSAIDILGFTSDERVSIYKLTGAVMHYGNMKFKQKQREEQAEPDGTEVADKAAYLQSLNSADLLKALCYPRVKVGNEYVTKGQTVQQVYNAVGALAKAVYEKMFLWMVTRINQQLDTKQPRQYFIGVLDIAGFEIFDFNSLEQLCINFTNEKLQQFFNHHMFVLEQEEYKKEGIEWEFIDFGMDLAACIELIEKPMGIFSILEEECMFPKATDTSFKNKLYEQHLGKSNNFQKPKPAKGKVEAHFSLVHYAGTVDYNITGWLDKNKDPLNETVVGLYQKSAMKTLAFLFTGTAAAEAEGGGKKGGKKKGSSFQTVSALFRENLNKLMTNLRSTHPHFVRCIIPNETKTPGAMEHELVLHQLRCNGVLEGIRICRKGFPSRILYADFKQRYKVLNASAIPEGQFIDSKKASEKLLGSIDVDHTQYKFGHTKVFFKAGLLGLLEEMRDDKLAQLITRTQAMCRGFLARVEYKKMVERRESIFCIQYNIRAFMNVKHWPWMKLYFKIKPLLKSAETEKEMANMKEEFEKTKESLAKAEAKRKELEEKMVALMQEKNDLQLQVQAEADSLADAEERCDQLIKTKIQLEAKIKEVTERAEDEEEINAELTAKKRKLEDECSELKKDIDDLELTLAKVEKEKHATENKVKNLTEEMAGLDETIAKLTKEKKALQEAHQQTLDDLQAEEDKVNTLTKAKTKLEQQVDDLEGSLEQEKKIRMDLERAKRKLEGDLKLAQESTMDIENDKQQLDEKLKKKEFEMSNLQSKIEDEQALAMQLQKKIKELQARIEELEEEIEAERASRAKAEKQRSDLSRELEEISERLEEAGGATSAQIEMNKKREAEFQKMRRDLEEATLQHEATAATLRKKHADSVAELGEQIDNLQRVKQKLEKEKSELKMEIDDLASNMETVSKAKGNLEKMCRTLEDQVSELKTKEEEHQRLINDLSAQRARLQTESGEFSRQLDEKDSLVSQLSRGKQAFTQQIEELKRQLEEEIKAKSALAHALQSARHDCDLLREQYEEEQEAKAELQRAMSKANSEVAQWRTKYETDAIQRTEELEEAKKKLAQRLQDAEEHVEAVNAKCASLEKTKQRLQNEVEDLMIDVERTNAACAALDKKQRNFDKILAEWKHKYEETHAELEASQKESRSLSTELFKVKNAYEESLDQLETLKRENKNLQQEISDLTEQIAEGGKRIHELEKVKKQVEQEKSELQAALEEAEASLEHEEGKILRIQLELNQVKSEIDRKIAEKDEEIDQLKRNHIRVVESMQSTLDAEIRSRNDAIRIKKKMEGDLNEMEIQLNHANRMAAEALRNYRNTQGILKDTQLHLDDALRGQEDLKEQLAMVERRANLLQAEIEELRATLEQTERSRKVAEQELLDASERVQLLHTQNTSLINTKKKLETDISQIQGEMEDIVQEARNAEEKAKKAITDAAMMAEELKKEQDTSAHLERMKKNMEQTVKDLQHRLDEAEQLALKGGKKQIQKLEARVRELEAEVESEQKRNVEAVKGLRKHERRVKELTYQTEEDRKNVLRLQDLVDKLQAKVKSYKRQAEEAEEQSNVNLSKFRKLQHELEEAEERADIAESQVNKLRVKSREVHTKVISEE

ratio of the S1:actin intensity in reconstituted ghost fibers (SDS-PAGE) [1]	ratio of TnI:actin in the reconstituted fiber (SDS-PAGE) [2]	Substance
1		myosin subfragment-1 (domain or fragment)
	4.5	skeletal troponin complex (from UniProt P02586 1-160; P02643 1-182; P02641 1-279)
